Data published in patent US20230348578A1, “CONFORMATION-SPECIFIC ANTIBODIES THAT BIND TAU PROTEIN AND USES THEREOF” (Beth Israel Deaconess Medical Center, Inc., priority 2020, published 2023).
Positions count from the first letter of the chain named.

B1: HT10: humanized cis-pThr231-tau mAb; heavy chain variable domain SEQ ID NO: 26, light chain variable domain SEQ ID NO: 19 (antibody, V domains shown)
VH: QVQLVQSGAEVKKPGASVKMSCKASGYTFTSYWIHWVKQRPGQGLEWIGVIDPSDSYTRYNQKFKGRATLTVDTSASTAYMELSSLRSEDTAVYYCTTWEVDYWGQGTLVTVSS
VL: DVVMTQSPLSLPVTLGQPASISCRSSQSLVHSDGNTYLHWYLQKPGQSPQLLIYKVSNRFSGVPDRFSGSGSGTDFTLKISRVEAEDVGVYYCSQSTHVPWTFGGGTKVEIK
B2: HT8: humanized cis-pThr231-tau mAb; heavy chain variable domain SEQ ID NO: 28, light chain variable domain SEQ ID NO: 18 (antibody, V domains shown)
VH: B1 VH with M20V, K38R, A68V, L70I, V72R
VL: B1 VL with F60D, Y92F
B3: HT18: humanized cis-pThr231-tau mAb; heavy chain variable domain SEQ ID NO: 29, light chain variable domain SEQ ID NO: 20 (antibody, V domains shown)
VH: B1 VH with A16S, M20V, K38R, R40A, I48M, A68V, L70I, V72R, A76M, M81T
VL: DIQMTQSPSTLSASVGDRVTITCRSSQSLVHSDGNTYLHWYQQKPGKAPKLLIYKVSNRFSGVPSRFSGSGSGTEFTLTISSLQPDDFATYYCSQSTHVPWTFGQGTKLEIK
B4: HT1: humanized cis-pThr231-tau mAb; heavy chain variable domain SEQ ID NO: 25, light chain variable domain SEQ ID NO: 16 (antibody, V domains shown)
VH: B1 VH with V11L, E82Q, R87T, T91S, L109T
VL: B1 VL with Y92F
B5: HT3: humanized cis-pThr231-tau mAb; heavy chain variable domain SEQ ID NO: 27, light chain variable domain SEQ ID NO: 16 (antibody, V domains shown)
VH: B1 VH with M20V, K38R, A68V
VL: B1 VL with Y92F
B6: HT2: humanized cis-pThr231-tau mAb; heavy chain variable domain SEQ ID NO: 26, light chain variable domain SEQ ID NO: 16 (antibody, V domains shown)
VH: B1 VH
VL: B1 VL with Y92F

What follows are molecules tested against T1, cis P-tau (Homo sapiens, UniProt P10636) (assay: Immunoblotting of CSF of live TBI patients). Conditions: relative to control CSF samples.
Type: binding
Set-up: The recognition of cis P-tau in the CSF of live TBI patients; from tissue; host or cells: cerebrospinal fluid of live traumatic brain injury patients
Description: CSF pT231-tau is an early biomarker of traumatic brain injury (TBI). The recognition of cis P-tau in the CSF of live TBI patients by the humanized cis pT231-tau monoclonal antibody variants evaluated immunoblotting analyses using different humanized antibody variants.

T1 sequence (P10636 1-441 isoform P10636-8): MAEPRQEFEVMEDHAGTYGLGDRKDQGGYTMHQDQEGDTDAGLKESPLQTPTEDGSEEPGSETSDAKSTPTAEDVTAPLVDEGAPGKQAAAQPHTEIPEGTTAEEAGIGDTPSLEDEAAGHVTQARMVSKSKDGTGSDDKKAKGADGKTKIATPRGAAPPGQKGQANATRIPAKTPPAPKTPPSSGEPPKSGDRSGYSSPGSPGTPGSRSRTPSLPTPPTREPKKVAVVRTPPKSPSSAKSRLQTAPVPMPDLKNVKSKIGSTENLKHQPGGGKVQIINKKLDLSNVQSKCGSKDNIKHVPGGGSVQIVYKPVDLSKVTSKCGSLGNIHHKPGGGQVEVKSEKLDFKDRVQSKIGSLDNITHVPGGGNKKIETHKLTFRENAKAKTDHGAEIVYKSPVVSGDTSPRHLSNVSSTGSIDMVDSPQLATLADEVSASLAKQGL

| Molecule | detection of cis P-tau in CSF of live TBI patients |
| --- | --- |
| B1 | robust detection of cis P-tau as early as three days after TBI |
| B2 | robust detection of cis P-tau as early as three days after TBI |
| B3 | robust detection of cis P-tau as early as three days after TBI |

The molecules below were run against T1, cis P-tau (assay: Elimination of cis P-tau in cultured neurons stressed by hypoxia). Conditions: 2.5 μg/ml, 5 μg/ml and 10 μg/ml.
Type: cell-based
Set-up: endogenous in cells
Method: (§1) The binding affinity of selected humanized antibody clones was determined by Biacore assay using a wild-type P-tau peptide and its pure cis or cis-locked, and pure trans counterparts. The […] of the selected humanized cis mAb variants was determined by assessing their ability to eliminate cis P-tau in stressed neurons in cell cultures. Functional restoration of selected clones was determined by their ability to restore risk-taking behavior after 3-hit or 7-hit repetitive TBI in mice, as assayed by elevated plus maze.
Cultured neurons were subjected to neuron stress by hypoxia in the presence or absence of different concentration of humanized antibody variants, followed by immunoblotting analysis to analyze cis P-tau levels in the stressed neurons, the results of which are provided in FIGS. 2-4. FIG. 2 is an immunostaining image showing the ability of humanized cis pT231-tau monoclonal antibody variants to eliminate cis P-tau in neurons under hypoxic conditions. Cis P-tau levels are reported in red and blue reports nuclear staining (Hoechst) to represent all neurons in the experiment. […] Cis P-tau levels are reported in red and blue reports nuclear staining (Hoechst) to represent all neurons in the experiment. […] IgG is a negative control. The cis-pTau monoclonal antibody C113 serves as a positive control.

| Molecule | elimination of cis P-tau in neurons under hypoxic conditions (images) | rank in cis P-tau elimination assay (FIG. 4) |
| --- | --- | --- |
| B4 | elimination of cis P-tau | – |
| B1 | elimination of cis P-tau | top four performing variants |
| B5 | elimination of cis P-tau | – |
| B6 | elimination of cis P-tau | top four performing variants |
| B2 | elimination of cis P-tau | top four performing variants |
| B3 | elimination of cis P-tau | top four performing variants |

The molecules below were run on BCAS (bilateral common carotid artery stenosis) mice (assay: 3 month treatment of BCAS mice with humanized cis mAbs (Y maze, NOR, Barnes maze)). Conditions: 1 month after BCAS surgery.
Type: in vivo
Method: BCAS mice were treated with novel humanized cis mAbs (HT10 and HT18), murine cis mAb C113 (as described in, e.g., U.S. Pat. No. 9,688,747, positive control), mouse-human chimeric HT13 (positive control), or IgG (negative control). Behavioral changes were assay by Y-maze and novel object recognition (NOR) at 1 month after BCAS (FIG. 92A); by Y-maze and NOR at 3 months after BCAS (FIG. 92B); and by Barnes maze at 3 months after BCAS (FIG. 92C). *, p<0.05; **, p<0.01; ***, p<0.001; ****, p<0.0001.
As described above in Examples 1-4, we developed 225 humanized cis P-tau mAb variants and identified 10 top fully humanized cis mAb variants (HT1-4, HT6-10 and HT18) with the expected specificity and potency. […] In this experiment, we performed a 3 month treatment of BCAS (bilateral common carotid artery stenosis) mice with two humanized cis mAb variants, HT10 and HT18, along with murine cis mAb C113 (as described in, e.g., U.S. Pat. No. 9,688,747) and mouse-human chimeric HT13 as positive controls.

| Molecule | VCID-like behavioral changes |
| --- | --- |
| B1 | effective in preventing VCID-like behavioral changes |
| B3 | effective in preventing VCID-like behavioral changes |

Same assay, conditions: 3 months after BCAS surgery, Barnes maze

| Molecule | VCID-like behavioral changes |
| --- | --- |
| B1 | effective in preventing VCID-like behavioral changes |
| B3 | effective in preventing VCID-like behavioral changes |

What follows are molecules tested against cis pT231-tau (P-tau peptide, pure cis or cis-locked) (assay: Biacore assay of binding affinity of humanized cis mAb variants). Conditions: not given.
Description: We next started to characterize and select lead humanized mAbs. We expressed and purified humanized mAb variants using a CHO expression system. We transfected over 45 plasmid DNA pairs of heavy and light chain cDNAs into CHO cells to express over 225 humanized cis mAb variants in various combinations. To evaluate the target binding specificity and affinity of our mouse mAbs, we established a simple and quantitative ELISA to screen the clones using a wild-type P-tau peptide and its pure cis or cis-locked, and pure trans counterparts and determined the binding affinity for selected clones using Biacore assays. We screened over 200 humanized cis mAb variants. […] Furthermore, one-tenth of humanized cis mAb variants were also able to recognize cis P-tau in human AD and TBI brains based on immunostaining analysis.
as §1

| Molecule | Kd [nM] |
| --- | --- |
| B4 | 1.83 |
| B1 | 1.77 |
| B5 | 3.51 |
| B6 | 1.62 |
| B2 | 7.68 |
| B3 | 1.91 |

The molecules below were run on mice (C57/BL6) after 7-hit repetitive TBI (assay: 7-hit repetitive mild TBI in mice, elevated plus maze). Conditions: risk-taking behavior, HT13 chimera control = 1.0.
Type: in vivo
Method: as §1
(§2) An initial sign of brain dysfunction following traumatic brain injury (TBI) is an increase in risk-taking behavior. To determine the therapeutic effect of the herein described cis pT231-tau monoclonal antibodies in restoring brain function 11-week old mice (C57/BL6) mice were subjected to elevated plus maze behavioral assays designed to evaluate risk-taking behavior following repetitive mild TBIs. The behavioral assays were performed as previously described in Walf, Nature Protocols 2(2): 322-328, 2007 (FIG. 7). […] All other mice sustained mild TBI (rmTB) either three times, once a day for three consecutive days, or seven times once a day for five consecutive days and two consecutive times on days 8 and 9. In the 3-hit TBI experiment (FIG. 8A), nine groups of mice received three doses (250 ug/mouse) via intraperitoneal injection of either IgG control (n=10 mice) or one of the following humanized cis pT231-tau monoclonal antibody variants C113 (n=5 mice), HT1 (n=10 mice), HT2 (n=10), HT3 (n=10), HT8 (n=5), HT10 (n=10), HT13 (n=15), HT18 (n=4). Treatment with IgG or humanized cis-pT231-tau monoclonal antibody was administered on Days 1, 2 and 7. Behavioral evaluation was performed on Day 13. In the 7-hit TBI experiment (FIG. 8B), one group sustained TBI only (n=10 mice). The other groups received 8 doses (250 ug/mouse) via intraperitoneal injection of either IgG control (n=10 mice) or one of the following humanized cis pT231-tau monoclonal antibody variants C113 (n=10 mice), HT2 (n=10), HT3 (n=10), HT8 (n=10), HT10 (n=10), HT13 (n=10), HT18/HC2 (n=10). Treatment with IgG or humanized cis-pT231-tau monoclonal antibody was administered on Days 1, 2, 3, 5, 8, 10, 13 and 20. Behavioral evaluation was performed on Day 27. The elevated plus maze was used to assess anxiety/risk-taking behavior and carried out as described in Kondo et al, Nature 523, 431-436, 2015. Briefly, the elevated plus maze consists of two white open arms (30×5 cm) and two white closed arms of the same size with 15-cm-high walls, extended out opposite from each other from a central platform (decision zone) to create a plus shape. The entire apparatus is raised 38 cm above the floor (Lafayette Instruments). Mice are placed on the center platform of the maze, facing a closed arm, and allowed to explore the apparatus for 5 min. The maze is cleaned between subjects with a weak ethanol solution and dried. A computer-assisted video tracking system (Noldus Ethovision) recorded the total time spent in the center platform (decision zone), and the two closed or ‘safe’ arms and the two open or ‘aversive’ arms. Mice with lower levels of anxiety/risk-taking behavior spend less time in the open arms.

| Molecule | Functional restoration 7-hit TBI |
| --- | --- |
| B1 | 1.3 |
| B5 | 2.0 |
| B6 | 1.7 |
| B2 | 1.4 |
| B3 | 1.1 |

These molecules were tested on mice (C57/BL6) after 3-hit repetitive TBI (assay: 3-hit repetitive mild TBI in mice, elevated plus maze). Conditions: risk-taking behavior, HT13 chimera control = 1.0.
Type: in vivo
Method: as §1, §2

| Molecule | Functional restoration 3-hit TBI |
| --- | --- |
| B4 | 1.5 |
| B1 | 1.2 |
| B5 | 1.7 |
| B6 | 1.4 |
| B3 | 1.0 |
